Measured values published in the supplement of paper PMC10065799, “High-throughput profiling of sequence recognition by tyrosine kinases and SH2 domains using bacterial peptide display” (eLife, 2023).

Experiments:
[1] = molecular target: Hck (UniProt P08631); assay: phosphorylation enrichment, bacterial display (enrichment ratio); higher = better substrate or ligand; peptides without Tyr show the background
[2] = molecular target: FGFR3 (UniProt P22607); assay: as above
[3] = test system: AncSZ; assay: as above
[4] = molecular target: EPHB2 (UniProt P29323); assay: as above
[5] = molecular target: FGFR1 (UniProt P11362); assay: as above
[6] = test system: c-Src; assay: as above
[7] = test system: c-Abl (mouse); assay: as above
[8] = molecular target: Fes (UniProt P07332); assay: as above
[9] = molecular target: Fyn (UniProt P06241); assay: as above
[10] = test system: Fer (mouse); assay: as above
[11] = molecular target: Jak2 (UniProt O60674); assay: as above
[12] = molecular target: MERTK (UniProt Q12866); assay: as above
[13] = molecular target: EPHB1 (UniProt P54762); assay: as above
[14] = molecular target: SHP2-C SH2; assay: SH2 binding enrichment of the phosphorylated peptide, bacterial display (enrichment ratio); higher = better substrate or ligand; peptides without Tyr show the background
[15] = molecular target: Grb2 SH2 (UniProt P62993); assay: as above
[16] = molecular target: c-Src SH2; assay: as above
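Throughout, for SH2 binding enrichment of the phosphorylated peptide, bacterial display: peptide library displayed on the E. coli surface as eCPX fusions, selected cells deep-sequenced, score is each peptide's frequency after selection divided by its frequency in the input.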
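Throughout, for phosphorylation enrichment, bacterial display: 11-residue human phosphosite peptides and single-mutation variants displayed on the E. coli surface, counted by deep sequencing, each peptide's frequency after selection divided by its frequency in the unselected input library; frequency after pTyr selection over input frequency; kinase dosed for 20-30% of maximal phosphorylation in three min.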

Fyn, sequence (P06241 whole entry, looked up): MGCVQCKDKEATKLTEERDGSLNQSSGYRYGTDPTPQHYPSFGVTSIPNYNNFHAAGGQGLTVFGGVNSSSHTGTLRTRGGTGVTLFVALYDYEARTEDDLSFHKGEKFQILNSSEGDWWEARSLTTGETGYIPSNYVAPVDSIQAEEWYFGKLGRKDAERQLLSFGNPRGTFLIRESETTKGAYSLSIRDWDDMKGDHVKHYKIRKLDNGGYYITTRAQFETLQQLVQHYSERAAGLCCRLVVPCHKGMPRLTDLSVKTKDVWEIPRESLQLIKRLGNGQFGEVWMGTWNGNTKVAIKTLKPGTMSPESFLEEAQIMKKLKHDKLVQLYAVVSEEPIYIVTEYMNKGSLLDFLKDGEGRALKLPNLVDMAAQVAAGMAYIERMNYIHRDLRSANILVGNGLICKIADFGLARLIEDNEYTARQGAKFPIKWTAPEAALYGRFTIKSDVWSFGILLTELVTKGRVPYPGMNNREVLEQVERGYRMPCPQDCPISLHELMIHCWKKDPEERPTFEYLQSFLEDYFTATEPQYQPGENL
Fes, sequence (P07332 whole entry, looked up): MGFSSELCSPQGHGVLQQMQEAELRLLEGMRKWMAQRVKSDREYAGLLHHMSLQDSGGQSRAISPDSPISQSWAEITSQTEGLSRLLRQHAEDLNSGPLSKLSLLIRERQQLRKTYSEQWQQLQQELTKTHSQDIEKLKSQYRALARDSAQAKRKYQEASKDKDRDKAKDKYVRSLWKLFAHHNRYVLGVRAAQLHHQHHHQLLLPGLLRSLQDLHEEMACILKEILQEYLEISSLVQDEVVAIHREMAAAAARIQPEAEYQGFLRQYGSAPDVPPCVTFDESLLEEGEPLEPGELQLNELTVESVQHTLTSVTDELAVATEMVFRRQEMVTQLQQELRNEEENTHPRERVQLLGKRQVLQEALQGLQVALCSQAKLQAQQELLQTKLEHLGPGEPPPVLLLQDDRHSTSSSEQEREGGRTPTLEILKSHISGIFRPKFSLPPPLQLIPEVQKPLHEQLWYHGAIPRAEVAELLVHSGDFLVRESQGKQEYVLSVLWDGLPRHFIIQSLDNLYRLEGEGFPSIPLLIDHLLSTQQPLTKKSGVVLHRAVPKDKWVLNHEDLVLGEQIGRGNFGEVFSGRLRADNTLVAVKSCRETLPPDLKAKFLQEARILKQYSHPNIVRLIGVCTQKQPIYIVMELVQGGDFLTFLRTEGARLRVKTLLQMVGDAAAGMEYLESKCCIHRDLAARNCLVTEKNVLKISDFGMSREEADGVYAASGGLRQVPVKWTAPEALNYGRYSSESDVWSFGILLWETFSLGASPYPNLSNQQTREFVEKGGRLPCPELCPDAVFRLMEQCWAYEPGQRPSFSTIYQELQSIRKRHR
EPHB2, sequence (P29323 whole entry, looked up): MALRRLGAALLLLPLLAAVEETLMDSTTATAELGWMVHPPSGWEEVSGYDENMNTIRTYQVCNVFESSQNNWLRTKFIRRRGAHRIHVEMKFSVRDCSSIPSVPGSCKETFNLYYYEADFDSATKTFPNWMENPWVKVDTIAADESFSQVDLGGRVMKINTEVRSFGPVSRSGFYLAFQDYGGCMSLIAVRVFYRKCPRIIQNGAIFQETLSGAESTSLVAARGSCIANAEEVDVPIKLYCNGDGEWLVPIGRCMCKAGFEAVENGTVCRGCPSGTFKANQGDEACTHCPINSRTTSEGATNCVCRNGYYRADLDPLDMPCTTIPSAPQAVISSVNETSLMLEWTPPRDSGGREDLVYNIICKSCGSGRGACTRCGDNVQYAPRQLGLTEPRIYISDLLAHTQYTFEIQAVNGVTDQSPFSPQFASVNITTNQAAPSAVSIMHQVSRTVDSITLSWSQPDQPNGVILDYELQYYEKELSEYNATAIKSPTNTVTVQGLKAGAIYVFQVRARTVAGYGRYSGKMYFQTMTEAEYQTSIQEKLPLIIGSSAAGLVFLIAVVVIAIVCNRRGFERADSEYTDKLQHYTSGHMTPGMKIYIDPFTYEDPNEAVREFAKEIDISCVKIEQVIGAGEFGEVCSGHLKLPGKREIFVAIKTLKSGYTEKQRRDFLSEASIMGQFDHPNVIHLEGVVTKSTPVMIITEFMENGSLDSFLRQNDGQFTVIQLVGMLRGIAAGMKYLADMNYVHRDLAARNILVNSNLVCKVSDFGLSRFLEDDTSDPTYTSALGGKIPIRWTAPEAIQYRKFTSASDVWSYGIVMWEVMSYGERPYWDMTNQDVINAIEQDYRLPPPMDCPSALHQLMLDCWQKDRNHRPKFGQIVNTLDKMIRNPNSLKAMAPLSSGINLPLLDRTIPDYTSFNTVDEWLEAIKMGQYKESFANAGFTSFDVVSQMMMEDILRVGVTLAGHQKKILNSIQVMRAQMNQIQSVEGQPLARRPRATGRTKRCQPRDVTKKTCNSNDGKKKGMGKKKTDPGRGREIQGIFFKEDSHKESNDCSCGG
MERTK, sequence (Q12866 whole entry, looked up): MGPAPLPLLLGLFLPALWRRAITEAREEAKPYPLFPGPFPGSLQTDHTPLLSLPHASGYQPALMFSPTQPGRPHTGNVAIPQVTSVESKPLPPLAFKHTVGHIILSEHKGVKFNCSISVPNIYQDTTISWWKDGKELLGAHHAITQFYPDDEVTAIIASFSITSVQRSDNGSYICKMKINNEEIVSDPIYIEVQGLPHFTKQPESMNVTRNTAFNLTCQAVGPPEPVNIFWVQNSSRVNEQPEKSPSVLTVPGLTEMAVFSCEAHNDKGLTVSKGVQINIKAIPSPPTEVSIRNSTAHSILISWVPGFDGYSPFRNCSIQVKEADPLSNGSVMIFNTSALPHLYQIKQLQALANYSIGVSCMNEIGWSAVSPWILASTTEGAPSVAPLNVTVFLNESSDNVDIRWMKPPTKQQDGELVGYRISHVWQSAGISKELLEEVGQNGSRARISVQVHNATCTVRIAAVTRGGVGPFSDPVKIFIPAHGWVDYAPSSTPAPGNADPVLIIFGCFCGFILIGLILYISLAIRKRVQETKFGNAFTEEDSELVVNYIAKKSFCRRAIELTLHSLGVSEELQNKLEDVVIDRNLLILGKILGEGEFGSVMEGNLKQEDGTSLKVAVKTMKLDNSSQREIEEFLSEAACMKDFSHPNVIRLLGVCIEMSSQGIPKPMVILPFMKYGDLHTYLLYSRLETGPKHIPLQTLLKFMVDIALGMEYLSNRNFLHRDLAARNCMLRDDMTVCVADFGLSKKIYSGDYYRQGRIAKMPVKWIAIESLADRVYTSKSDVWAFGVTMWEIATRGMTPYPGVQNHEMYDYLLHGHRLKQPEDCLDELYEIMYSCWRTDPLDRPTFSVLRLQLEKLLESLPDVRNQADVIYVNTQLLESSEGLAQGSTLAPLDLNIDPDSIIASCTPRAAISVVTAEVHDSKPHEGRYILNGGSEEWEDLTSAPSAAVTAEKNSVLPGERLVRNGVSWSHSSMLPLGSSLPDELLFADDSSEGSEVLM
Hck, sequence (P08631 whole entry, looked up): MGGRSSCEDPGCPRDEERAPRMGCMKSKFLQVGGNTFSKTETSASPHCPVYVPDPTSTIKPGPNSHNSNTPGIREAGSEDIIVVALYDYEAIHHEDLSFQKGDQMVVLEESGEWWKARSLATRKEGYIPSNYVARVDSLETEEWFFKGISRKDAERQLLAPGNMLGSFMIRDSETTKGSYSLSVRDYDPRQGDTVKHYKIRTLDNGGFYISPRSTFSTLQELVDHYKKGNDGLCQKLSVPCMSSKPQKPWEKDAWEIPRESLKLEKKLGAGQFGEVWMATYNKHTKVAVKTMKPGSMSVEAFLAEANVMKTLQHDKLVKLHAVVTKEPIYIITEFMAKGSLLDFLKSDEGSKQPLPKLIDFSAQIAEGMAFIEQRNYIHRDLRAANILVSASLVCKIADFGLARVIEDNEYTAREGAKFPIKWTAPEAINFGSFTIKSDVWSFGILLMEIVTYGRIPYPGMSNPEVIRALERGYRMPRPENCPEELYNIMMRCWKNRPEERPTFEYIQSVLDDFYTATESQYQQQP
EPHB1, sequence (P54762 whole entry, looked up): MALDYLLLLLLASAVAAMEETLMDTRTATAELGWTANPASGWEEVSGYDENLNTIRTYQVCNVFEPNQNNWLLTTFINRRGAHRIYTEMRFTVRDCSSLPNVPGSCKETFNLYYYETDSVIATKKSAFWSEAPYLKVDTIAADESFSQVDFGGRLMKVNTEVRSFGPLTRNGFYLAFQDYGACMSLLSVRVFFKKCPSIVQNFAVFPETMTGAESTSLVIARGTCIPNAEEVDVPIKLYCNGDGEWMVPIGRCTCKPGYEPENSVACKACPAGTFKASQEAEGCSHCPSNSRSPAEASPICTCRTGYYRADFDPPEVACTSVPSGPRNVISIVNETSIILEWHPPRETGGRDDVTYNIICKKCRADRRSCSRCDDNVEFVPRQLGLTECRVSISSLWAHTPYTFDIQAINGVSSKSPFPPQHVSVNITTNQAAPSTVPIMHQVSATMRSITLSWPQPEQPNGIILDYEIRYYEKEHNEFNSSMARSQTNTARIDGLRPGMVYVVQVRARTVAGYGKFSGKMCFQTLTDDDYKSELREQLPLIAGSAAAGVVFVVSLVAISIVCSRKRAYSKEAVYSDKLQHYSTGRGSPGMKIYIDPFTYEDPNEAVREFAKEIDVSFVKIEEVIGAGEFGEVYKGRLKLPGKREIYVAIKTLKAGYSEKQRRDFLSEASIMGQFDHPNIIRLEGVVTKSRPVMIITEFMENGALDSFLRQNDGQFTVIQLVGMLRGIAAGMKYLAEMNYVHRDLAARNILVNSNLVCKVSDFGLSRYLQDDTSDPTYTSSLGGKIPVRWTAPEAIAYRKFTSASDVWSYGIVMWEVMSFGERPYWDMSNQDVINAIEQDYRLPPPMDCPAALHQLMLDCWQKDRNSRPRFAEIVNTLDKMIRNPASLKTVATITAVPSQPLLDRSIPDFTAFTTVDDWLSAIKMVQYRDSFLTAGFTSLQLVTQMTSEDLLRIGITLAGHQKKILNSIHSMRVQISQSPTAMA

Sequence | SH2 binding enrichment [14] | SH2 binding enrichment [15] | SH2 binding enrichment [16] | phosphorylation enrichment [1] | phosphorylation enrichment [2] | phosphorylation enrichment [3] | phosphorylation enrichment [4] | phosphorylation enrichment [5] | phosphorylation enrichment [6] | phosphorylation enrichment [7] | phosphorylation enrichment [8] | phosphorylation enrichment [9] | phosphorylation enrichment [10] | phosphorylation enrichment [11] | phosphorylation enrichment [12] | phosphorylation enrichment [13]
IITDFYVDMKF [MPP4_Y567_V562I_YF] | 0.906 | 0.799 | 0.452 | 0.722 | 1.39 | 1.31 | 1.08 | 1.37 | 0.58 | 0.905 | 1.66 | 0.527 | 0.953 | 1.75 | 0.511 | 1.41
IKKLIYVHLVI [JAGN1_Y42] | 0.775 | 1.1 | 0.631 | 0.671 | 0.842 | 1.02 | 0.59 | 0.604 | 0.424 | 0.852 | 1.32 | 0.496 | 0.592 | 0.982 | 0.569 | 0.669
IKNSGYISRFL [EIF2AK3_Y585_YF] | 1.1 | 1.24 | 0.793 | 0.379 | 0.495 | 0.564 | 0.455 | 0.367 | 0.43 | 0.537 | 0.669 | 0.348 | 0.286 | 0.61 | 0.44 | 0.366
IMAYFYMCDSA [CASD1_Y382_R386S] | 0.702 | 1.08 | 0.677 | 0.51 | 2.25 | 1.38 | 0.643 | 2.24 | 0.69 | 1.07 | 1.5 | 0.523 | 0.597 | 1.93 | 0.505 | 0.845
INNKMYDPKMN [ENPP1_Y280_D276N] | 0.69 | 0.707 | 0.442 | 0.436 | 0.491 | 0.535 | 0.432 | 0.389 | 0.449 | 0.473 | 0.609 | 0.397 | 0.482 | 0.556 | 0.354 | 0.44
IQKWEYVPLGT [FAH_Y244_P249T] | 0.497 | 0.837 | 0.817 | 0.428 | 0.723 | 0.954 | 0.532 | 1.06 | 0.384 | 0.564 | 0.866 | 0.475 | 0.416 | 1.23 | 0.328 | 0.768
IRRIAYEFVEM [ADA_Y84_K80R] | 0.435 | 0.542 | 1.15 | 0.433 | 0.511 | 0.887 | 0.543 | 0.869 | 0.458 | 0.489 | 0.872 | 0.417 | 2.85 | 0.638 | 0.469 | 0.343
ISRASYFRKGG [ALK_Y1282_Y1278S_YF] | 0.484 | 0.755 | 0.45 | 0.435 | 0.388 | 0.664 | 0.37 | 0.341 | 0.506 | 0.597 | 0.724 | 0.419 | 0.456 | 0.59 | 0.469 | 0.4
ISTAGYSIPEL [EDAR_Y406] | 0.893 | 0.796 | 7.33 | 0.534 | 0.697 | 0.807 | 0.464 | 0.416 | 0.457 | 1.46 | 0.92 | 0.397 | 0.436 | 0.745 | 0.713 | 0.525
ITLKGYNLSNS [GNPTAB_Y728_K732N] | 0.884 | 1.05 | 0.627 | 0.477 | 0.618 | 0.66 | 0.487 | 0.525 | 0.448 | 0.466 | 0.639 | 0.488 | 0.433 | 0.547 | 0.381 | 0.385
KAALSYVSEIG [BPIFB2_Y36] | 0.58 | 0.914 | 0.457 | 0.476 | 0.558 | 0.555 | 0.385 | 0.456 | 0.372 | 0.453 | 0.636 | 0.364 | 0.387 | 0.668 | 0.326 | 0.352
KASGKYFAMKI [AKT3_Y173_YF] | 1.45 | 1.37 | 1.21 | 0.323 | 0.421 | 0.495 | 0.338 | 0.347 | 0.351 | 0.447 | 0.626 | 0.344 | 0.34 | 0.508 | 0.367 | 0.372
KASIMYPSSNC [CXCL11_Y52_N55S] | 0.7 | 0.943 | 0.565 | 0.429 | 0.467 | 0.629 | 0.48 | 0.455 | 0.397 | 0.497 | 0.653 | 0.434 | 0.452 | 0.522 | 0.395 | 0.411
KDFNKYVAFIE [KDM4B_Y31_YF] | 1.02 | 0.864 | 1.42 | 0.505 | 0.581 | 0.799 | 0.429 | 0.399 | 0.456 | 0.629 | 0.836 | 0.513 | 0.434 | 0.744 | 0.424 | 0.43
KFVVVYFREID [IL17RB_Y447_YF] | 2.08 | 1.96 | 1.43 | 0.538 | 0.691 | 1.2 | 0.523 | 0.49 | 0.408 | 0.724 | 1.27 | 0.436 | 0.446 | 1.17 | 0.362 | 0.508
KFWREYILSLE [GPC3_Y299_YF] | 1.31 | 1.27 | 0.932 | 0.452 | 0.72 | 0.999 | 0.666 | 0.478 | 0.588 | 0.912 | 1.2 | 0.462 | 0.422 | 0.997 | 0.431 | 0.552
KGELCYMHSRV [ABCD1_Y281_R280C] | 0.883 | 1.31 | 0.632 | 0.485 | 0.682 | 0.813 | 0.581 | 0.479 | 0.402 | 0.43 | 0.757 | 0.505 | 0.449 | 0.568 | 0.563 | 0.597
KGELRYMHSPV [ABCD1_Y281_R285P] | 0.58 | 0.931 | 0.533 | 0.345 | 0.458 | 0.481 | 0.367 | 0.364 | 0.365 | 0.527 | 0.674 | 0.328 | 0.315 | 0.619 | 0.406 | 0.393

More lines, main results first:

SH2 binding enrichment [14] | SH2 binding enrichment [15] | SH2 binding enrichment [16] | Sequence | phosphorylation enrichment [1] | phosphorylation enrichment [2] | phosphorylation enrichment [3] | phosphorylation enrichment [4] | phosphorylation enrichment [5] | phosphorylation enrichment [6] | phosphorylation enrichment [7] | phosphorylation enrichment [8] | phosphorylation enrichment [9] | phosphorylation enrichment [10] | phosphorylation enrichment [11] | phosphorylation enrichment [12] | phosphorylation enrichment [13]
1.59 | 1.77 | 1.47 | IIRQLYLKWHP [SACS_Y4333_R4331Q] | 1.12 | 0.604 | 0.888 | 0.444 | 0.473 | 0.509 | 0.608 | 1.02 | 0.38 | 0.4 | 1.01 | 1.08 | 0.469
1.27 | 1.47 | 1.1 | ILIFHYAKGQP [MPZ_Y82_S78L] | 0.674 | 0.85 | 1.32 | 0.705 | 0.612 | 0.508 | 0.904 | 1.37 | 0.504 | 0.819 | 1.01 | 0.475 | 0.753
0.864 | 0.948 | 0.87 | INMKKYCKKDY [NTN1_Y490] | 0.461 | 0.592 | 0.626 | 0.298 | 0.45 | 0.401 | 0.824 | 0.912 | 0.391 | 0.434 | 0.698 | 0.402 | 0.424
0.707 | 0.907 | 0.514 | IRQDDYESLKE [MTR_Y921_H920D] | 0.571 | 0.608 | 1.32 | 0.553 | 0.5 | 0.533 | 1 | 1.15 | 0.455 | 0.463 | 1.13 | 0.474 | 0.633
0.765 | 0.951 | 5.48 | IRQGHYESLKE [MTR_Y921_D919G] | 0.519 | 0.567 | 0.573 | 0.34 | 0.419 | 0.45 | 0.443 | 0.768 | 0.466 | 0.652 | 0.85 | 0.457 | 0.392
0.529 | 1.33 | 0.406 | ISIFFYAKGQP [MPZ_Y82_H81Y_YF] | 0.573 | 0.865 | 1.33 | 0.611 | 0.544 | 0.548 | 1.25 | 1.52 | 0.395 | 0.554 | 1.43 | 0.527 | 0.608
1.11 | 1.03 | 0.655 | ISPPVYLTNEW [NRK_Y885] | 0.732 | 0.718 | 1.13 | 0.724 | 0.704 | 0.766 | 0.92 | 1.09 | 0.825 | 0.698 | 1.1 | 0.542 | 0.694
1.52 | 1.19 | 1.61 | ISSLPYMKMIF [SLC4A11_Y853_M848I] | 0.677 | 0.665 | 1.05 | 0.547 | 0.696 | 0.79 | 0.872 | 1.07 | 0.457 | 1.11 | 1.35 | 0.668 | 0.536
0.738 | 0.895 | 0.476 | KDHPDYKYQAR [SOX10_Y171_P175A] | 0.496 | 0.563 | 0.606 | 0.416 | 0.416 | 0.415 | 0.609 | 0.696 | 0.434 | 0.448 | 0.58 | 0.39 | 0.427
0.791 | 0.928 | 0.609 | KDPPDYKFQPR [SOX9_Y172_H169P_YF] | 0.414 | 0.527 | 0.811 | 0.44 | 0.427 | 0.43 | 0.626 | 0.789 | 0.439 | 0.449 | 0.719 | 0.461 | 0.343
0.829 | 1.2 | 0.675 | KDQPDYKFQPR [SOX9_Y172_H169Q_YF] | 0.386 | 0.529 | 0.666 | 0.402 | 0.422 | 0.434 | 0.457 | 0.678 | 0.382 | 0.381 | 0.491 | 0.46 | 0.348
0.541 | 0.768 | 0.486 | KEAQVYQAFRL [SUCLG2_Y343_K347R] | 14 | 0.581 | 0.576 | 0.62 | 0.743 | 11.3 | 19.6 | 0.677 | 14.2 | 14 | 0.661 | 4.78 | 1.23
0.762 | 0.861 | 0.653 | KFANSYRMEPL [TCTE3_Y87] | 0.414 | 0.491 | 0.574 | 0.409 | 0.443 | 0.528 | 0.534 | 0.623 | 0.47 | 0.465 | 0.774 | 0.417 | 0.43
7.45 | 1.07 | 1.73 | KFDLMYAKLAF [TUBA1A_Y399_R402L] | 4.61 | 0.676 | 0.818 | 0.619 | 0.49 | 3.04 | 0.716 | 1.13 | 1.26 | 0.632 | 0.811 | 3.23 | 0.726
1.01 | 0.948 | 0.656 | KFSNQYKATIG [RAB7A_Y37] | 0.44 | 0.411 | 0.528 | 0.311 | 0.351 | 0.485 | 0.471 | 0.613 | 0.41 | 0.463 | 0.538 | 0.4 | 0.47
